Holding throughout (assay): SPR
(In general: SPR reads the build-up and loss of mass on a sensor chip optically.)

The target in assay [1] is IL-1 receptor accessory protein (IL-1RAcP) ectodomain (Homo sapiens (Human)., UniProt Q9NPH3, glycosylated (seven putative glycosylation sites)).
Assay [2] deals with IL-1RAcP domain 1/2 (Homo sapiens, UniProt Q9NPH3).
For assay [3], the target named is IL-1RAcP domain 3 (Homo sapiens, UniProt Q9NPH3).
Assay [4] addresses Fc-fused IL-1RAcP Y249A (Homo sapiens, UniProt Q9NPH3, Y249A).
Assay [5] has as its target Fc-fused IL-1RAcP R286A (Homo sapiens, UniProt Q9NPH3, R286A).
The target in assay [6] is Fc-fused IL-1RAcP V224A (Homo sapiens, UniProt Q9NPH3, V224A).
Sequence of Fc-fused IL-1RAcP V224A (Q9NPH3 21-367 V244A): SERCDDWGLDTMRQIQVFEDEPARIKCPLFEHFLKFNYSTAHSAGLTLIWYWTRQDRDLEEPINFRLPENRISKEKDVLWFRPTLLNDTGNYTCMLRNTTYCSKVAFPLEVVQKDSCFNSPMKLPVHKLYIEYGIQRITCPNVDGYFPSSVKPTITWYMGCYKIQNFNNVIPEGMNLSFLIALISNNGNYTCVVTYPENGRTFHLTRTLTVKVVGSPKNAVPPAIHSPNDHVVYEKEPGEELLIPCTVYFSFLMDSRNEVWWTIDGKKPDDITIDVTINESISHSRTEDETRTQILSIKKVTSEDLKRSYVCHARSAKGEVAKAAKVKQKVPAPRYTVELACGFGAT
In assay [7] the target is Fc-fused IL-1RAcP H226A (Homo sapiens, UniProt Q9NPH3, H226A).
Sequence of Fc-fused IL-1RAcP H226A (Q9NPH3 21-367 H246A): as the sequence (Q9NPH3 21-367 V244A) above, with A224V, H226A counted along it

Sequence of IL-1 receptor accessory protein (IL-1RAcP) ectodomain (Q9NPH3 21-367): as the sequence (Q9NPH3 21-367 V244A) above, with A224V counted along it
Sequence of Fc-fused IL-1RAcP R286A (Q9NPH3 21-367 R306A): as the sequence (Q9NPH3 21-367 V244A) above, with A224V, R286A counted along it
Sequence of Fc-fused IL-1RAcP Y249A (Q9NPH3 21-367 Y269A): as the sequence (Q9NPH3 21-367 V244A) above, with A224V, Y249A counted along it

B1: 3G5 monoclonal antibody (hIgG1 with Fc-silent LALA mutations) (antibody, V domains shown)
VH: EVQLVESGGVLVKPGGSLKLSCAASGFTFSDYAMSWVRQTPEKRLEWVATITDGGSYAYYTDDVKGRFTVSRDNARNNLFLQMSHLRSEDTGIYYCSRDRWPYYFDFWGRGTTLTVSS
VL: DIQMTQSPTSLSVSVGETVTITCRISENIYSNLAWYQQKEGKSPQLLVYAATKLADGVPSRFSGSGSGTQYSLKINSLQSEDFGNYYCQHFWTTPRTFGGGTKVEIK
As a reminder, the Kd is the free concentration of one partner at which half of the binding sites on the other are occupied at equilibrium, for simple one-to-one binding. The koff is the rate constant with which the complex falls apart. Turning to B1, in assay [1], the Kd stood at 0.141 nM and the koff was 0.000225 s⁻¹. For the same molecule, the binding result in assay [2] is listed as “no binding (tested: 1.25nM to 20nM)”. In addition, the Kd in assay [3] was determined as 0.118 nM.

B2: 3G5 Fab (Fab, V domains shown)
VH: B1 VH
VL: B1 VL
Consider B2, for which the “ΔΔG (change in binding free energy against wild-type IL-1RacP-Fc)” value in assay [4] amounted to 1.85 kcal/mol; in assay [5], 0.3 kcal/mol; in assay [6], 1.3 kcal/mol; in assay [7], 2.4 kcal/mol.

The values are drawn from paper PMC11587196 (Cell reports, 2024).
